This assay addresses His6-tagged WT-αSyn (human, UniProt P37840 1-140). Kind of assay: BLI.

B1: E234G/H363A-HYPE (enzyme)
chain: GKLEARAALNQALEMKRQGKREKAQKLFMHALKMDPDFVDALTEFGIFSEEDKDIIQADYLYTRALTISPYHEKALVNRDRTLPLVEEIDQRYFSIIDSKVKKVMSIPKGNSALRRVMEETYYHHIYHTVAIGGNTLTLSEIRHILETRYAVPGKSLEEQNEVIGMHAAMKYINTTLVSRIGSVTISDVLEIHRRVLGYVDPVEAGRFRTTQVLVGHHIPPHPQDVEKQMQEFVQWLNSEEAMNLHPVEFAALAHYKLVYIAPFIDGNGRTSRLLMNLILMQAGYPPITIRKEQRSDYYHVLEAANEGDVRPFIRFIAKCTETTLDTLLFATTEYSVALPEAQPNHSGFKETLPVKP
Regarding B1, the dissociation constant Kd was 15.3 µM.

The values are drawn from paper PMC6554060 (Journal of molecular biology, 2019).
